Measured values reported in IntAct's records for PubMed 31515488.

B1: Mothers against decapentaplegic homolog 4 (Homo sapiens), Q13485 (parent)
chain: MDNMSITNTPTSNDACLSIVHSLMCHRQGGESETFAKRAIESLVKKLKEKKDELDSLITAITTNGAHPSKCVTIQRTLDGRLQVAGRKGFPHVIYARLWRWPDLHKNELKHVKYCQYAFDLKCDSVCVNPYHYERVVSPGIDLSGLTLQSNAPSSMMVKDEYVHDFEGQPSLSTEGHSIQTIQHPPSNRASTETYSTPALLAPSESNATSTANFPNIPVASTSQPASILGGSHSEGLLQIASGPQPGQQQNGFTGQPATYHHNSTTTWTGSRTAPYTPNLPHHQNGHLQHHPPMPPHPGHYWPVHNELAFQPPISNHPAPEYWCSIAYFEMDVQVGETFKVPSSCPIVTVDGYVDPSGGDRFCLGQLSNVHRTEAIERARLHIGKGVQLECKGEGDVWVRCLSDHAVFVQSYYLDREAGRAPGDAVHKIYPSAYIKVFDLRQCHRQMQQQAATAQAAAAAQAAAVAGNIPGPGSVGGIAPAISLSAAAGIGVDDLRRLCILRMSFVKGWGPDYPRQSIKETPCWIEIHLHRALQLLDEVLHTMPIADPQPLD
partner: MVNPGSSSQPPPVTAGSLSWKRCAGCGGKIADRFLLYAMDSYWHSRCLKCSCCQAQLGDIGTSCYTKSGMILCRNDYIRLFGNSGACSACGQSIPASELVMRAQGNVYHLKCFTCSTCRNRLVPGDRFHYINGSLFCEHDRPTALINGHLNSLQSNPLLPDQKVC
B2: Microtubule-associated tumor suppressor candidate 2 (Homo sapiens), Q5JR59-3 (parent)
chain: MGHCCCKPYNCLQCLDKTNESALVKEKELSIELANIRDEVAFHTAKCEKLQKEKEELERRFEDEVKRLGWQQQAELQELEERLQLQFEAEMARLQEEHGDQLLSIRCQHQEQVEDLTASHDAALLEMENNHTVAITILQDDHDHKVQELMSTHELEKKELEENFEKLRLSLQDQVDTLTFQSQSLRDRARRFEEALRKNTEEQLEIALAPYQHLEEDMKSLKQVLEMKNQQIHEQEKKILELEKLAEKNIILEEKIQVLQQQNEDLKARIDQNTVVTRQLSEENANLQEYVEKETQEKKRLSRTNEELLWKLQTGDPTSPIKLSPTSPVYRGSSSGPSSPARVSTTPR
partner: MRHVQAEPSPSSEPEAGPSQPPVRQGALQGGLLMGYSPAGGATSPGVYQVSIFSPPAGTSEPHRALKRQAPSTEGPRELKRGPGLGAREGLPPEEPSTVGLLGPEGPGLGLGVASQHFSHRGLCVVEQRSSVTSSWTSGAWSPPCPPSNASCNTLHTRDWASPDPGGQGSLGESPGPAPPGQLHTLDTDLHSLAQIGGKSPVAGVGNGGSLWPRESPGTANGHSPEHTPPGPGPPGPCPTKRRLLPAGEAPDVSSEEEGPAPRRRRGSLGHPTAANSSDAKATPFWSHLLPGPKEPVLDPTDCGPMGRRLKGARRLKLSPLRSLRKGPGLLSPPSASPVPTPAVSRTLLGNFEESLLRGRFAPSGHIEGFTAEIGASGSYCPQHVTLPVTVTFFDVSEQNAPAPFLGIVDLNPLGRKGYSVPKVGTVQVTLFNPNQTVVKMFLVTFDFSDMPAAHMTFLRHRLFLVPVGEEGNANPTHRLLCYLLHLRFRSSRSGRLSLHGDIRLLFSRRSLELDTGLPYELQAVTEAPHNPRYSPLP
B3: Prelamin-A/C (Homo sapiens), P02545 (parent)
chain: METPSQRRATRSGAQASSTPLSPTRITRLQEKEDLQELNDRLAVYIDRVRSLETENAGLRLRITESEEVVSREVSGIKAAYEAELGDARKTLDSVAKERARLQLELSKVREEFKELKARNTKKEGDLIAAQARLKDLEALLNSKEAALSTALSEKRTLEGELHDLRGQVAKLEAALGEAKKQLQDEMLRRVDAENRLQTMKEELDFQKNIYSEELRETKRRHETRLVEIDNGKQREFESRLADALQELRAQHEDQVEQYKKELEKTYSAKLDNARQSAERNSNLVGAAHEELQQSRIRIDSLSAQLSQLQKQLAAKEAKLRDLEDSLARERDTSRRLLAEKEREMAEMRARMQQQLDEYQELLDIKLALDMEIHAYRKLLEGEEERLRLSPSPTSQRSRGRASSHSSQTQGGGSVTKKRKLESTESRSSFSQHARTSGRVAVEEVDEEGKFVRLRNKSNEDQSMGNWQIKRQNGDDPLLTYRFPPKFTLKAGQVVTIWAAGAGATHSPPTDLVWKAQNTWGCGNSLRTALINSTGEEVAMRKLVRSVTVVEDDEDEDGDDLLHHHHGSHCSSSGDPAEYNLRSRTVLCGTCGQPADKASASGSGAQVGGPISSGSSASSVTVTRSYRSVGGSGGGSFGDNLVTRSYLLGNSSPRTQSPQNCSIM
partner: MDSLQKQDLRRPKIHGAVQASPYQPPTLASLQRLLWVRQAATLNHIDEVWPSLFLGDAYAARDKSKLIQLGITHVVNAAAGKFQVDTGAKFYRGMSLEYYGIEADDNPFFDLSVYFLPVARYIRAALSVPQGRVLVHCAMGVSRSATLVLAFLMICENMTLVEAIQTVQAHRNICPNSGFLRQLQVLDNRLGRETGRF
B4: Rhophilin-1 (Homo sapiens), Q8TCX5 (parent)
chain: MILEERPDGAGAGEESPRLQGCDSLTQIQCGQLQSRRAQIHQQIDKELQMRTGAENLYRATSNNRVRETVALELSYVNSNLQLLKEELEELSGGVDPGRHGSEAVTVPMIPLGLKETKELDWSTPLKELISVHFGEDGASYEAEIRELEALRQAMRTPSRNESGLELLTAYYNQLCFLDARFLTPARSLGLFFHWYDSLTGVPAQQRALAFEKGSVLFNIGALHTQIGARQDRSCTEGARRAMEAFQRAAGAFSLLRENFSHAPSPDMSAASLCALEQLMMAQAQECVFEGLSPPASMAPQDCLAQLRLAQEAAQVAAEYRLVHRTMAQPPVHDYVPVSWTALVHVKAEYFRSLAHYHVAMALCDGSPATEGELPTHEQVFLQPPTSSKPRGPVLPQELEERRQLGKAHLKRAILGQEEALRLHALCRVLREVDLLRAVISQTLQRSLAKYAELDREDDFCEAAEAPDIQPKTHQKPEARMPRLSQGKGPDIFHRLGPLSVFSAKNRWRLVGPVHLTRGEGGFGLTLRGDSPVLIAAVIPGSQAAAAGLKEGDYIVSVNGQPCRWWRHAEVVTELKAAGEAGASLQVVSLLPSSRLPSLGDRRPVLLGPRGLLRSQREHGCKTPASTWASPRPLLNWSRKAQQGKTGGCPQPCAPVKPAPPSSLKHPGWP
B5: Cyclin-D1-binding protein 1 (Homo sapiens), O95273 (parent)
chain: MASATAPAAAVPTLASPLEQLRHLAEELRLLLPRVRVGEAQETTEEFNREMFWRRLNEAAVTVSREATTLTIVFSQLPLPSPQETQKFCEQVHAAIKAFIAVYYLLPKDQGITLRKLVRGATLDIVDGMAQLMEVLSVTPTQSPENNDLISYNSVWVACQQMPQIPRDNKAAALLMLTKNVDFVKDAHEEMEQAVEECDPYSGLLNDTEENNSDNHNHEDDVLGFPSNQDLYWSEDDQELIIPCLALVRASKACLKKIRMLVAENGKKDQVAQLDDIVDISDEISPSVDDLALSIYPPMCHLTVRINSAKLVSVLKKALEITKASHVTPQPEDSWIPLLINAIDHCMNRIKELTQSELEL
partner: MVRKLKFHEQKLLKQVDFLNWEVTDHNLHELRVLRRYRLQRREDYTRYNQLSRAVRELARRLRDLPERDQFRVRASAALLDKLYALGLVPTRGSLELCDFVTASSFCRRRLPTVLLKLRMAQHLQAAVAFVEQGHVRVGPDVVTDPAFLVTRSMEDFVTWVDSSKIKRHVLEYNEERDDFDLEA
B6: Notch homolog 2 N-terminal-like protein A (Homo sapiens), Q7Z3S9 (parent)
chain: MCVTYHNGTGYCKCPEGFLGEYCQHRDPCEKNRCQNGGTCVAQAMLGKATCRCASGFTGEDCQYSTSHPCFVSRPCLNGGTCHMLSRDTYECTCQVGFTGKECQWTDACLSHPCANGSTCTTVANQFSCKCLTGFTGQKCETDVNECDIPGHCQHGGTCLNLPGSYQCQCLQGFTGQYCDSLYVPCAPSPCVNGGTCRQTGDFTFECNCLPETVRRGTELWERDREVWNGKEHDEN
partner: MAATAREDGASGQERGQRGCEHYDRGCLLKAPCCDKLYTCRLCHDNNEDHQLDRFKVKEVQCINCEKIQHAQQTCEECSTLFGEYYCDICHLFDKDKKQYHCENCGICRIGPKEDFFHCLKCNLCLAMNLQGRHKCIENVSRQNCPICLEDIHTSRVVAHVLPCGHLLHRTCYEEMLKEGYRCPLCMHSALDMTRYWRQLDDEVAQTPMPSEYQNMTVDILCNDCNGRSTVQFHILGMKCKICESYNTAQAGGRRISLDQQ
B7: Probable RNA-binding protein EIF1AD (Homo sapiens), Q8N9N8 (parent)
chain: MSQATKRKHVVKEVLGEHIVPSDQQQIVRVLRTPGNNLHEVETAQGQRFLVSMPSKYRKNIWIKRGDFLIVDPIEEGEKVKAEISFVLCKDHVRSLQKEGFWPEAFSEVAEKHNNRNRQTQPELPAEPQLSGEESSSEDDSDLFVNTNRRQYHESEEESEEEEAA
partner: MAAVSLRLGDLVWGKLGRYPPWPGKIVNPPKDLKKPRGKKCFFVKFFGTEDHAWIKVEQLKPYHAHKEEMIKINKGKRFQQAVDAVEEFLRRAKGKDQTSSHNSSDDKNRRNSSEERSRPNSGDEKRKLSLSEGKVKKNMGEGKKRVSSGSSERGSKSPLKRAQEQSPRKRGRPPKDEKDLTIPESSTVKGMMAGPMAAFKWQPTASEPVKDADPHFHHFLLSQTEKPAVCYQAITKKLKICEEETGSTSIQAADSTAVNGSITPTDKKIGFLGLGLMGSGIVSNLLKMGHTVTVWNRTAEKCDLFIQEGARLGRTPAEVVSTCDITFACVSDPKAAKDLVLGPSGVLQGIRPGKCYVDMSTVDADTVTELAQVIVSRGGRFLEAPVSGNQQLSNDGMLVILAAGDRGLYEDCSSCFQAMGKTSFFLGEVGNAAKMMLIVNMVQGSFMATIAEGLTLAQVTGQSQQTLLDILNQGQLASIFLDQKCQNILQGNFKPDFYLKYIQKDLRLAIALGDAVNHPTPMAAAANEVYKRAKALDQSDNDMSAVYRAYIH
B8: Melanoma-associated antigen 8 (Homo sapiens), P43361 (parent)
chain: MLLGQKSQRYKAEEGLQAQGEAPGLMDVQIPTAEEQKAASSSSTLIMGTLEEVTDSGSPSPPQSPEGASSSLTVTDSTLWSQSDEGSSSNEEEGPSTSPDPAHLESLFREALDEKVAELVRFLLRKYQIKEPVTKAEMLESVIKNYKNHFPDIFSKASECMQVIFGIDVKEVDPAGHSYILVTCLGLSYDGLLGDDQSTPKTGLLIIVLGMILMEGSRAPEEAIWEALSVMGLYDGREHSVYWKLRKLLTQEWVQENYLEYRQAPGSDPVRYEFLWGPRALAETSYVKVLEHVVRVNARVRISYPSLHEEALGEEKGV
partner: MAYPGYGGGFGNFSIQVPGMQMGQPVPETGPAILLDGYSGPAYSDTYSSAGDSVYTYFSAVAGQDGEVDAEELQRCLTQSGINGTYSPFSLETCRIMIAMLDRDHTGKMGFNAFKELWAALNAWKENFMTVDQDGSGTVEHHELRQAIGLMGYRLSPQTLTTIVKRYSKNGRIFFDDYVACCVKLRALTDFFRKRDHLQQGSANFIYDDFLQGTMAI

Variants of: B1
Conditions: with lmo4_human LMO4, P61968

Variant | effect of a mutation on the interaction
C324R | disrupting interaction strength
Y353S | with no effect
L533R | with no effect

Variants of: B2
Conditions: with atosb_human ATOSB

Variant | effect of a mutation on the interaction
A89V | with no effect

Variants of: B3
Conditions: with ds13b_human DUSP13B

Variant | effect of a mutation on the interaction
I299V | with no effect

Variants of: B4
Conditions: with mtus2_human MTUS2, Q5JR59
mtus2_human MTUS2, Q5JR59, sequence (Q5JR59 whole entry): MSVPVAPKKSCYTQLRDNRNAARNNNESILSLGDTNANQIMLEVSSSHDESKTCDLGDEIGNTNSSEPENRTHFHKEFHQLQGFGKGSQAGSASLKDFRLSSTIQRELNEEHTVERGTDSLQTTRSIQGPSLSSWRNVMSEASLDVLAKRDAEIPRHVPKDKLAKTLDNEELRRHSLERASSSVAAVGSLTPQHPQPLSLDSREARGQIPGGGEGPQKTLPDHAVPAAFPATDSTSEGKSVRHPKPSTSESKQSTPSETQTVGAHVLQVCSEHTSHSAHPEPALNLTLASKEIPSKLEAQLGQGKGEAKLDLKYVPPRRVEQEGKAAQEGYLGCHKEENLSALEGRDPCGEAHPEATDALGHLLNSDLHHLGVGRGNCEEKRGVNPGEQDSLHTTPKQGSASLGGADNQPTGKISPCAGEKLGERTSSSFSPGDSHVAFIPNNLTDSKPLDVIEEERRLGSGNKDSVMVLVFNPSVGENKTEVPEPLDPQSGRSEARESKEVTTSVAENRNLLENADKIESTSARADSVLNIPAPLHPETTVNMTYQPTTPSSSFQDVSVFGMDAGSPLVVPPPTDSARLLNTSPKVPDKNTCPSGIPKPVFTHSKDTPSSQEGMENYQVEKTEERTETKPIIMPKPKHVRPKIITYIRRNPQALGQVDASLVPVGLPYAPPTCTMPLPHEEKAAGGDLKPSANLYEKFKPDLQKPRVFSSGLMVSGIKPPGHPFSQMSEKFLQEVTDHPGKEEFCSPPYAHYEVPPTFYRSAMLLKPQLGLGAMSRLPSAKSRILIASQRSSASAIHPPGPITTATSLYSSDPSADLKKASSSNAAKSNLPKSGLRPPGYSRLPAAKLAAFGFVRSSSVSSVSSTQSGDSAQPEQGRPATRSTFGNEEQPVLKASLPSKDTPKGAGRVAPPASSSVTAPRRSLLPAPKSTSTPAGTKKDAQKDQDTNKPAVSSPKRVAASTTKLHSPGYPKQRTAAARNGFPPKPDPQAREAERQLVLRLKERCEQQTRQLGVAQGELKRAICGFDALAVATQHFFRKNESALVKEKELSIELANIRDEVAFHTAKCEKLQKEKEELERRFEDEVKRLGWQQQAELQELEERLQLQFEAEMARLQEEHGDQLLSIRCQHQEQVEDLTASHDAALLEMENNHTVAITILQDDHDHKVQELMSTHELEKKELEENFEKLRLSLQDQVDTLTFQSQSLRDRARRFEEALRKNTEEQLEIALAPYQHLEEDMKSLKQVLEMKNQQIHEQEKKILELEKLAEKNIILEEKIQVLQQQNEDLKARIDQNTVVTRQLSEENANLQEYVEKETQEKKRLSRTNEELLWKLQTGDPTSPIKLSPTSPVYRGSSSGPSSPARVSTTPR

Variant | effect of a mutation on the interaction
A536T | with no effect

Variants of: B5
Conditions: with imp3_human IMP3, Q9NV31

Variant | effect of a mutation on the interaction
I277T | disrupting interaction strength

Variants of: B6
Conditions: with zn363_human RCHY1, Q96PM5

Variant | effect of a mutation on the interaction
R74Q | with no effect
A115T | with no effect

Variants of: B7
Conditions: with glyr1_human GLYR1, Q49A26

Variant | effect of a mutation on the interaction
R48C | with no effect

Variants of: B8
Conditions: with gran_human GCA

Variant | effect of a mutation on the interaction
R9C | with no effect
